Experimental data taken from paper PMC11257983 (2024).
Values belong to the molecule of their own block, whether it stands above or below them.

Experiments:
[1] = target: endogenous CNK (anti-CNK blot, no CNK construct transfected); assay: anti-V5 immunoprecipitation, immunoblot quantification; conditions: S2 cells; V5-KSR and Myc-MEK co-expressed; anti-CNK blot (band near 180 kDa); parent: 1.00
Flag-CNK^2–549 = Flag-CNK^2–549 (UniProt Q7KNQ9); assay: GST pull-down, immunoblot quantification; conditions: S2 cells, Flag-CNK2–549, V5-KSR, Myc-MEK, GST-HYP co-expressed, captured via GST-HYP, parent: 1.00
Flag-CNK^2–549, sequence (Q7KNQ9 entry or part of it): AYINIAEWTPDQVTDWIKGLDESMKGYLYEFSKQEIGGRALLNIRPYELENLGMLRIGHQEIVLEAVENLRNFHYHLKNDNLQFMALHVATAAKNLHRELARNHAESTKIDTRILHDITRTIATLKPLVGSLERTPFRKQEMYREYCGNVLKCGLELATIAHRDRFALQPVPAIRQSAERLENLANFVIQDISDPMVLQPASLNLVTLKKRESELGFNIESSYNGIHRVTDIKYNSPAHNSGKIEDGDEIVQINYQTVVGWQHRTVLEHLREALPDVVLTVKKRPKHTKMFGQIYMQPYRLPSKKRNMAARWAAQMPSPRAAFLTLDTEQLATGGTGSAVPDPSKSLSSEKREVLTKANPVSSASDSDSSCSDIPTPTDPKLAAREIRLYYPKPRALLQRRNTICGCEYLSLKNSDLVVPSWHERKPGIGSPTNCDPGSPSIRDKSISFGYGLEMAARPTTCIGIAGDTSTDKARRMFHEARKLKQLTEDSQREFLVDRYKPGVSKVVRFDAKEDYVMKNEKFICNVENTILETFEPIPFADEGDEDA

[2] = target: CNK^CRIC Q84E (Flag-CNK^2–549 assumed); assay: GST pull-down, immunoblot quantification; conditions: S2 cells, Flag-CNK2–549, V5-KSR, Myc-MEK, GST-HYP co-expressed, captured via GST-HYP, parent: 1.00
[3] = target: CNK^CRIC N96E (Flag-CNK^2–549 assumed); assay: GST pull-down, immunoblot quantification; conditions: S2 cells, Flag-CNK2–549, V5-KSR, Myc-MEK, GST-HYP co-expressed, captured via GST-HYP, parent: 1.00
[4] = target: CNK^SAM R46F (Flag-CNK^2–549 assumed); assay: GST pull-down, immunoblot quantification; conditions: S2 cells, Flag-CNK2–549, V5-KSR, Myc-MEK, GST-HYP co-expressed, captured via GST-HYP, parent: 1.00
[5] = target: CNK^SAM Y76R (Flag-CNK^2–549 assumed); assay: GST pull-down, immunoblot quantification; conditions: S2 cells, Flag-CNK2–549, V5-KSR, Myc-MEK, GST-HYP co-expressed, captured via GST-HYP, parent: 1.00
V5-KSR R913E, Q24171 = target: T1, V5-KSR R913E, Q24171; assay: anti-V5 immunoprecipitation, immunoblot quantification; conditions: chain shown with the change; S2 cells; V5-KSR and Myc-MEK co-expressed; anti-Myc (MEK) blot; parent: 1.00
T1 chain: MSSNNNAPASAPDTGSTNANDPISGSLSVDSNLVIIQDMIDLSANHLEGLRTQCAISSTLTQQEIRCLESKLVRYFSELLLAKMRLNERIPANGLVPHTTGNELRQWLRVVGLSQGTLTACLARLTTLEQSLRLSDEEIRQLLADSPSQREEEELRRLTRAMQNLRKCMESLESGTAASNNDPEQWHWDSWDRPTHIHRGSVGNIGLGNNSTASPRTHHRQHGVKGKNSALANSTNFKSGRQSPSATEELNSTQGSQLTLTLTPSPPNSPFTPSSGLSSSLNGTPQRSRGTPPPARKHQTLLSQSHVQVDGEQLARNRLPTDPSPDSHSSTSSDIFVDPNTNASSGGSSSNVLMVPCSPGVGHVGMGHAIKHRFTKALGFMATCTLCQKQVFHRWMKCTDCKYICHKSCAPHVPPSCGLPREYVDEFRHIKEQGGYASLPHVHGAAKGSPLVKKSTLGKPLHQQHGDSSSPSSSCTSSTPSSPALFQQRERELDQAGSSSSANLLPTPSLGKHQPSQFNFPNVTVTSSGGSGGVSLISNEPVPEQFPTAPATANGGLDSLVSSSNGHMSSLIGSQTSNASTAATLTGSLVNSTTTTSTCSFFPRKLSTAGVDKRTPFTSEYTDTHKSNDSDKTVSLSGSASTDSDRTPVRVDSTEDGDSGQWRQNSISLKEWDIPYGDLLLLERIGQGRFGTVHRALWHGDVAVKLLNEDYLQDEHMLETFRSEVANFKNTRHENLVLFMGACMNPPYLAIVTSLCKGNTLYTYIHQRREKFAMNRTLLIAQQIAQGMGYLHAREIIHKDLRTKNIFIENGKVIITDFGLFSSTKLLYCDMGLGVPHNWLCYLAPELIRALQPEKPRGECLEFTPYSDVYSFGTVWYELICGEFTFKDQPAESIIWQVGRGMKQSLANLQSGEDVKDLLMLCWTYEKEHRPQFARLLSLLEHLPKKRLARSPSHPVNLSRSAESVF

ratio to parent [1]: 1.12
Molecule: V5-KSR (from UniProt Q24171) E926R

ratio to parent [1]: 0.26
Molecule: V5-KSR (from UniProt Q24171) K903D

ratio to parent [1]: 0.13
Molecule: V5-KSR (from UniProt Q24171) M902D

ratio to parent [1]: 0.25
Molecule: V5-KSR (from UniProt Q24171) Y925D

ratio to parent (Flag-CNK^2–549; anti-Myc (MEK) blot): 0.41
ratio to parent (Flag-CNK^2–549; anti-V5 (KSR) blot): 0.41
Molecule: m5; m6 KSR:R913E; MEK:E323R

More lines, now with the values behind:

Molecule: V5-KSR (from UniProt Q24171) W896R
ratio to parent [1]: 0.29

Molecule: m5; m8 KSR:R913E; CNK:Q84E
ratio to parent ([2]; anti-Myc (MEK) blot): 0.1
ratio to parent ([2]; anti-V5 (KSR) blot): 0.13

Molecule: m6; m8 MEK:E323R; CNK:N96E
ratio to parent ([3]; anti-Myc (MEK) blot): 0.22
ratio to parent ([3]; anti-V5 (KSR) blot): 0.27

Molecule: m6; m8 MEK:E323R; CNK:Q84E
ratio to parent ([2]; anti-Myc (MEK) blot): 0.02
ratio to parent ([2]; anti-V5 (KSR) blot): 0.05

Molecule: m6; m8 MEK:E323R; CNK:R46F
ratio to parent ([4]; anti-Myc (MEK) blot): 0.2
ratio to parent ([4]; anti-V5 (KSR) blot): 0.23

Molecule: m6; m8 MEK:E323R; CNK:Y76R
ratio to parent ([5]; anti-Myc (MEK) blot): 0.06
ratio to parent ([5]; anti-V5 (KSR) blot): 0.09

B1: m6; m5 MEK:E323R; KSR:R913E (protein)
chain: MSKNKLNLVLPPVNTEATVAAATVAPTPPFKTPSGTDTHSLLGKPKTSIDALTETLEGLDMGDTERKRIKMFLSQKEKIGELSDEDLEKLGELGSGNGGVVMKVRHTHTHLIMARKLIHLEVKPAIKKQILRELKVLHECNFPHIVGFYGAFYSDGEISICMEYMDGGSLDLILKRAGRIPESILGRITLAVLKGLSYLRDNHAIIHRDVKPSNILVNSSGEIKICDFGVSGQLIDSMANSFVGTRSYMSPERLQGTHYSVQSDIWSLGLSLVEMAIGMYPIPPPNTATLESIFADNAEESGQPTDEPRAMAIFELLDYIVNRPPPKLEHKIFSTEFKDFVDICLKKQPDERADLKTLLSHPWIRKAELEEVDISGWVCKTMDLPPSTPKRNTSPN
ratio to parent (V5-KSR R913E, Q24171): 1.01
